In PMC12612047 (Nature Communications, 2025):

Columns and labels:
[1] = target: T1, purified, catalytically inactive CNA/B containing CNA_(Trunc+H151Q) (UniProt Q08209 1-391; P63098 1-170, H151Q); test: NMR titration
[2] = target: T1, purified, catalytically inactive CNA/B …; test: fluorescence polarisation
Target sequence in this assay (Q08209 1-391 H151Q, chain 1 of 2): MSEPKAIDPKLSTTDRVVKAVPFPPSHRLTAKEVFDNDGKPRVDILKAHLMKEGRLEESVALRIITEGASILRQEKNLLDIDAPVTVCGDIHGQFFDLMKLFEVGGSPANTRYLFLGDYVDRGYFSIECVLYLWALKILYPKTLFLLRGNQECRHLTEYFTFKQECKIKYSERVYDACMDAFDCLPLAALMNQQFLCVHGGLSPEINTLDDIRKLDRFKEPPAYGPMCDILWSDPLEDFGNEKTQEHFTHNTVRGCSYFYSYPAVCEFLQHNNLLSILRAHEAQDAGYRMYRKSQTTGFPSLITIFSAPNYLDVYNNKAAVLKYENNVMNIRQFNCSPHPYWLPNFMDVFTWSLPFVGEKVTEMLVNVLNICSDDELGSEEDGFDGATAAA
Target sequence in this assay (P63098 whole entry, chain 2 of 2): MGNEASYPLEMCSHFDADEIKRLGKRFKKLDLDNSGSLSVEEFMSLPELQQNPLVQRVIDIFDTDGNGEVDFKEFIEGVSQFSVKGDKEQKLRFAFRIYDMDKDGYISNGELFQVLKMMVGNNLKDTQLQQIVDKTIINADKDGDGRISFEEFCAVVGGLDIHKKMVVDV

Binder	binding result [1]	binding result [2]
full-length CLMB (76 residues) expressed in E. coli (natural protein, uniformly ^15N-labeled in the NMR titrations; not phosphorylated) MGLKMSCLKGFQMCVSSSSSSHDEAPVLNDKHLDVPDIIITPPTPTGMMLPRDLGSTVWLDETGSCPDDGEIDPEA	binds	
SHDEAPVLNDKHADAPDIIITPPTPTGMML (phosphothreonine at 44) [pCLMB_(LxVMut) peptide (residues 21-50, pThr44), unlabeled]		binds
SHDEAPVLNDKHLDVPDIIITPPTPTGMML [CLMBWT peptide (residues 21-50), not phosphorylated, unlabeled]		binds
